Source: patent US20020192780

Tests used:
SEQ ID NO:1 (KVLDPVKG) = target: T1, SEQ ID NO:1 (KVLDPVKG)
T1 chain: KVLDPVKG

SEQ ID NO:2 (KVLDGQDP) = target: T2, SEQ ID NO:2 (KVLDGQDP)
T2 chain: KVLDGQDP

[1] = target: PLA2 (Bovine pancreas, EC 3.1.1.4, Sigma), P00593
Chain of PLA2 (Bovine pancreas, EC 3.1.1.4, Sigma), P00593 (P00593 23-145): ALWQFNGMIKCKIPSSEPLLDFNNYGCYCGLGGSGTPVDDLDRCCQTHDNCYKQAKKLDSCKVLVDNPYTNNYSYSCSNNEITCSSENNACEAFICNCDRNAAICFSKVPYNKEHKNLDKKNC

B1: TGase (Guinea pig liver, EC 2.3.2.13, Sigma) (protein)
chain: AEDLILERCDLQLEVNGRDHRTADLCRERLVLRRGQPFWLTLHFEGRGYEAGVDTLTFNAVTGPDPSEEAGTMARFSLSSAVEGGTWSASAVDQQDSTVSLLLSTPADAPIGLYRLSLEASTGYQGSSFVLGHFILLYNPRCPADAVYMDSDQERQEYVLTQQGFIYQGSAKFINGIPWNFGQFEDGILDICLMLLDTNPKFLKNAGQDCSRRSRPVYVGRVVSAMVNCNDDQGVLQGRWDNNYSDGVSPMSWIGSVDILRRWKDYGCQRVKYGQCWVFAAVACTVLRCLGIPTRVVTNFNSAHDQNSNLLIEYFRNESGEIEGNKSEMIWNFHCWVESWMTRPDLEPGYEGWQALDPTPQEKSEGTYCCGPVPVRAIKEGHLNVKYDAPFVFAEVNADVVNWIRQKDGSLRKSINHLVVGLKISTKSVGRDEREDITHTYKYPEGSEEEREAFVRANHLNKLATKEEAQEETGVAMRIRVGQNMTMGSDFDIFAYITNGTAESHECQLLLCARIVSYNGVLGPVCSTNDLLNLTLDPFSENSIPLHILYEKYGDYLTESNLIKVRGLLIEPAANSYVLAERDIYLENPEIKIRVLGEPKQNRKLIAEVSLKNPLPVPLLGCIFTVEGAGLTKDQKSVEVPDPVEAGEQAKVRVDLLPTEVGLHKLVVNFECDKLKAVKGYRNVIIGPA
TGase activity (incorporation of 14C-putrescine into succinylated casein), peptide 1x10^-8 M preincubated with the enzyme (SEQ ID NO:1 (KVLDPVKG)): significantly reduced the PLA2 and TGase activities
TGase activity (incorporation of 14C-putrescine into succinylated casein), peptide 1x10^-8 M preincubated with the enzyme (SEQ ID NO:2 (KVLDGQDP)): significantly reduced the PLA2 and TGase activities
PLA2 activity [1]: PLA2 activity was increased about 2-fold after TGase 2 treatment
